According to article PMC6192581 (2018):
Like-named read-outs stand apart in the source and are kept apart here.

Columns and labels:
[1] = target: T1, LDL (apolipoprotein B-100) (Homo sapiens, UniProt P04114)
[2] = target: T1, LDL (apolipoprotein B-100); remark: listed apart in the source

- Kd [1]: 7.01 nM
- Kd [2]: 0.58 nM
B1: LDL receptor 1-789 (protein)
chain: not shown
